Article PMC6144812
Where a chain is given by its changes, count along the chain named.

Experiments:
Assay in all cases: EMSA
[1] = biological target: T1, nPfh1 (nuclear isoform, wild-type) (Schizosaccharomyces pombe, UniProt Q9UUA2-2 1-785)
T1 sequence: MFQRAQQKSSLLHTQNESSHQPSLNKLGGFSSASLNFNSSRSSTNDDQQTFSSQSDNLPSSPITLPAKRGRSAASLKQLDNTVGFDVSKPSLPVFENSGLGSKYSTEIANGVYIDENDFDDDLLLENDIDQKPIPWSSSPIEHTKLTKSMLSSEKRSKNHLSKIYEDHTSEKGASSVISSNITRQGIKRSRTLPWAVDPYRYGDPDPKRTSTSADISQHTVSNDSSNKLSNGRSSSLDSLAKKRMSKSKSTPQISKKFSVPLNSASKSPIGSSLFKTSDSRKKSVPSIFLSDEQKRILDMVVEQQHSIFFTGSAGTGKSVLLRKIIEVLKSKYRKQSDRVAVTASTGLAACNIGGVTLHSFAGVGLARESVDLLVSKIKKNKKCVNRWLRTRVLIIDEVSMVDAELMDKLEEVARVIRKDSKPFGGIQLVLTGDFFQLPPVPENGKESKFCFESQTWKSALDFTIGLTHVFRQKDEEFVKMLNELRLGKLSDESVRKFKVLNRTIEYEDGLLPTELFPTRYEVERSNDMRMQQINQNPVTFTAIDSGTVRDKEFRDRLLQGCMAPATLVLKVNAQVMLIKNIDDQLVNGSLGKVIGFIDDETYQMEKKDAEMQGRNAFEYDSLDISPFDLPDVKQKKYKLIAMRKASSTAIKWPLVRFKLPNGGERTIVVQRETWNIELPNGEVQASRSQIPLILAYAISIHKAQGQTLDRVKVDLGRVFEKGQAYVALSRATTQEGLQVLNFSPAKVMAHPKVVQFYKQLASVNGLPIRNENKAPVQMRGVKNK

nPfh1-Δ21 = biological target: T2, nPfh1-Δ21 (Schizosaccharomyces pombe, UniProt Q9UUA2-2 1-785, del408-428)
T2 sequence: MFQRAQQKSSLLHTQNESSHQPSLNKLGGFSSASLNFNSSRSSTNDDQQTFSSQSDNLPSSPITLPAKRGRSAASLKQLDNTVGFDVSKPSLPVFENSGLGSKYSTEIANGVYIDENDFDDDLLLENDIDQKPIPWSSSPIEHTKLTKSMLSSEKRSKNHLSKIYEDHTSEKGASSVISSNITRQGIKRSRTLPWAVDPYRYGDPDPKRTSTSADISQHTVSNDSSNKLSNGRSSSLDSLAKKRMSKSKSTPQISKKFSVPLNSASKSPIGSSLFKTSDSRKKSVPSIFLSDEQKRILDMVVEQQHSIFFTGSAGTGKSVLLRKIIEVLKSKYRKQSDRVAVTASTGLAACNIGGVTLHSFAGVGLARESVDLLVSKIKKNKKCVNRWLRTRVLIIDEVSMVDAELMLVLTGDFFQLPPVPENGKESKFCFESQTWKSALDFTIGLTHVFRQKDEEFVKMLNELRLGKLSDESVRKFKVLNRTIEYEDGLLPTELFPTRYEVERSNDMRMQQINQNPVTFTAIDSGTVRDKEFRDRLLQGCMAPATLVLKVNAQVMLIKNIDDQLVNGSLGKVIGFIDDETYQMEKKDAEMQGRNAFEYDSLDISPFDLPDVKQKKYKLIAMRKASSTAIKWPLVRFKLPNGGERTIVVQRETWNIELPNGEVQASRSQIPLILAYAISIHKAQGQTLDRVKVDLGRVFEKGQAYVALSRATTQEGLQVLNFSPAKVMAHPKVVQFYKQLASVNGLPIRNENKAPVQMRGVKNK

nPfh1-L430A = biological target: T3, nPfh1-L430A (Schizosaccharomyces pombe, UniProt Q9UUA2-2 1-785, L410A)
T3 sequence: T1 sequence with L410A

nPfh1-L430P = biological target: T4, nPfh1-L430P (Schizosaccharomyces pombe, UniProt Q9UUA2-2 1-785, L410P)
T4 sequence: T1 sequence with L410P

B1: 3'-5' DNA/DNA partial duplex (dsDNA)
DNA 1: TCGATGGTACGGACGTGCTTAAAGAAAAAAAAAA
DNA 2: TCGATGGTACGGACGTGCTTAA
**Q.** Does B1 bind [1]?
**A.** no binding

B2: Y-fork (dsDNA)
DNA 1: AAAAAAAAAAGATTAAGCACGTCCGTACCATCGA
DNA 2: B1 DNA 1
**Q.** B2 was tested. Which binding signal (nPfh1-Δ21) did it give?
**A.** < 5 % bound

**Q.** What about the binding signal (nPfh1-L430A) of the same binder?
**A.** < 5 % bound

**Q.** And the binding signal (nPfh1-L430P)?
**A.** < 5 % bound

B3: Duplex DNA/DNA (dsDNA)
DNA 1: TTAAGCACGTCCGTACCATCGA
DNA 2: TCGATGGTACGGACGTGCTTAA
**Q.** Does B3 bind [1]?
**A.** no binding
